Results as given in article PMC8307404, “Crystal Structure-Guided Design of Bisubstrate Inhibitors and Photoluminescent Probes for Protein Kinases of the PIM Family” (Molecules, 2021).
Square brackets hold non-standard residues; d marks the D form. Ends that are not written are not given here.

Columns and labels:
Assay in all cases: fluorescence polarisation + other: time-gated luminescence intensity (TGLI); binding/displacement assay in solution with the probes ARC-1451, ARC-1188 or ARC-583; 20 min at 30 °C; 50 mM HEPES pH 7.4, 150 mM NaCl, 5 mM dithiothreitol, 0.5 mg/mL BSA, 0.005% Tween-20; N = 2
Details in all cases: both partners purified
[1] = biological target: catalytic subunit α of protein kinase A (human, UniProt P17612 1-351)
protein kinase PIM-1 = protein kinase PIM-1 (human, UniProt P11309 1-313)
protein kinase PIM-2 = protein kinase PIM-2 (human, UniProt Q9P1W9 1-311)
protein kinase PIM-3 = protein kinase PIM-3 (human, UniProt Q86V86 1-326)

protein kinase PIM-1, sequence (P11309 whole entry): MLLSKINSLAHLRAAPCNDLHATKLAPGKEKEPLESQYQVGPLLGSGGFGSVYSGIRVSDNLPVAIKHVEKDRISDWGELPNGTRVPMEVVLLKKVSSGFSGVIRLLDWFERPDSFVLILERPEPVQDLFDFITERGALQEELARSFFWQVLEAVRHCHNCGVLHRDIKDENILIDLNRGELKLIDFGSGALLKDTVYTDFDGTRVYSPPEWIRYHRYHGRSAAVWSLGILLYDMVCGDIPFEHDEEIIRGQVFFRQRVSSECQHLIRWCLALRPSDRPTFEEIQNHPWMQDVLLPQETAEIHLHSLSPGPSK
protein kinase PIM-2, sequence (Q9P1W9 whole entry): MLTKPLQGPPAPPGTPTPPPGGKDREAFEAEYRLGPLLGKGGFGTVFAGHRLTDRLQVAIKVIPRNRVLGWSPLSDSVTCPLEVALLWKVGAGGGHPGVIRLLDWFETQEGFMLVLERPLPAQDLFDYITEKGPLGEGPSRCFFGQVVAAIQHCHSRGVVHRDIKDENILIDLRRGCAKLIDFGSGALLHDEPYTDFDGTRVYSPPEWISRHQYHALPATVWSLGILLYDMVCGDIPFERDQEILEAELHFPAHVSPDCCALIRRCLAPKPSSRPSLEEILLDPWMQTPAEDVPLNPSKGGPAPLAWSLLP

Kd [1]: > 89 µM | Kd (protein kinase PIM-1): > 11.5 µM | Kd (protein kinase PIM-2): > 46 µM | Kd (protein kinase PIM-3): > 16.4 µM
B1: PIM peptide, (D-Arg)2-Gly-D-Arg-D-Lys-NH2 (peptide)
peptide: [dR][dR]G[dR][dK]-NH2
modifications: N-terminus assumed
SMILES: N=C(N)NCCC[C@@H](N)C(=O)N[C@H](CCCNC(=N)N)C(=O)NCC(=O)N[C@H](CCCNC(=N)N)C(=O)N[C@H](CCCCN)C(N)=O
notes: printed in three-letter code as (D-Arg)2-Gly-D-Arg-D-Lys-NH2; All chiral residues are D-amino acids; This is the peptide part of compounds 1-5, without the adenosine analogue moiety and the linker; also called designed peptide mimetic moiety of compounds 1-5; source: synthetic peptide (Fmoc solid-phase synthesis on Rink amide resin, HPLC purified)
